Experimental findings from patent publication US20210008161A1 (CRISPR THERAPEUTICS, published 2021) are described below.

For this experiment, the target named is p53-binding protein 1 (53BP1) (human, UniProt Q12888 1-1972). Kind of experiment: cell-based or functional assay.
Sequence of p53-binding protein 1 (53BP1) (Q12888 whole entry): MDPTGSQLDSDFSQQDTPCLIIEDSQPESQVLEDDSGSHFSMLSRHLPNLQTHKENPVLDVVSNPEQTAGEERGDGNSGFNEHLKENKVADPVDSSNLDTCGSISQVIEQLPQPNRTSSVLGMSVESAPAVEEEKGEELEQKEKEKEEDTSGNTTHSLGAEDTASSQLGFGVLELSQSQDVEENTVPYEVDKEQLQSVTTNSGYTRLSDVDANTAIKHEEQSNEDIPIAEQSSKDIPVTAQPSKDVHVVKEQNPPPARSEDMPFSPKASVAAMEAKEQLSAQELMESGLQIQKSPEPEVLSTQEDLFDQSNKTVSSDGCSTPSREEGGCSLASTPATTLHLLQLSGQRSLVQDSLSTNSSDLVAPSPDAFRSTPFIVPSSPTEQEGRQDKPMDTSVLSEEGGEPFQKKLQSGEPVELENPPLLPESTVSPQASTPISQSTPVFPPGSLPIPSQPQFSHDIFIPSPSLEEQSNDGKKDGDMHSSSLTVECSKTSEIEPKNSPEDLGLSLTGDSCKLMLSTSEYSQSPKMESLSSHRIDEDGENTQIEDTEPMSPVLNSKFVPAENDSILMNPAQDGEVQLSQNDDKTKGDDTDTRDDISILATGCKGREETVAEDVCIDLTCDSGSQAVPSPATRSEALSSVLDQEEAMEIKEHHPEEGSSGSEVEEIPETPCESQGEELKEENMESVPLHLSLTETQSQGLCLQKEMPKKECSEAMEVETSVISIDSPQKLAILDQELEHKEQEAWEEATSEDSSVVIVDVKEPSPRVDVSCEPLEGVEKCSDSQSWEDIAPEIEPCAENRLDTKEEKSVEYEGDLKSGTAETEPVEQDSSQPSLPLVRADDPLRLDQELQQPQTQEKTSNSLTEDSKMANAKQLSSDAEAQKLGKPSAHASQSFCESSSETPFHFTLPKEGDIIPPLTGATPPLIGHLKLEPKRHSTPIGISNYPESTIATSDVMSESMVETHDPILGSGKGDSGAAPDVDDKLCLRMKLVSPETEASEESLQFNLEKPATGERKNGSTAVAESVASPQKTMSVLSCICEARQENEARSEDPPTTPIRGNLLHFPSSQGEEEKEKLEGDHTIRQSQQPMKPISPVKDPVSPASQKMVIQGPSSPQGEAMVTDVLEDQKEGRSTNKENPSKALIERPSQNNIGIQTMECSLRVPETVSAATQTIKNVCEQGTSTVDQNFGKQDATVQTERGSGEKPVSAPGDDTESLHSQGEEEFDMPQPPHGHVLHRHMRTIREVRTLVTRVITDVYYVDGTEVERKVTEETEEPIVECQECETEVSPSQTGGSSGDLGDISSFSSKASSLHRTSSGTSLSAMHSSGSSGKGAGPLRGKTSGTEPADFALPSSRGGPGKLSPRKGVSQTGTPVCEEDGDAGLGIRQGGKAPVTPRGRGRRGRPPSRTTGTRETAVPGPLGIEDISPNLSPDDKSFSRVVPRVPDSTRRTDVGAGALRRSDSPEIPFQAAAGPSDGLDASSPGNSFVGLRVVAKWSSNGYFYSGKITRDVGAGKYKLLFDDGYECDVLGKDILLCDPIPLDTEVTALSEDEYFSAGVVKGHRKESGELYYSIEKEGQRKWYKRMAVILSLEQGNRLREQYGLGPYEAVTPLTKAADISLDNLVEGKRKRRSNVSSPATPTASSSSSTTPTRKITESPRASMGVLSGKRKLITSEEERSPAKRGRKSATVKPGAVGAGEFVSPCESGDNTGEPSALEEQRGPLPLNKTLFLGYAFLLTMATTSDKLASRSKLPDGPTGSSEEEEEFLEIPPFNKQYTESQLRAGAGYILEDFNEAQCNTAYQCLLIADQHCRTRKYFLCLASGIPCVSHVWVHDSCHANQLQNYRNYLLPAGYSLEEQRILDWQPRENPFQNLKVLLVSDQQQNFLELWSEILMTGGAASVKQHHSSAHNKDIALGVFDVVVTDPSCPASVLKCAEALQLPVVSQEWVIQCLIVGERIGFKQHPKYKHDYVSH

B1: i53 polypeptide (polypeptide inhibitor of 53BP1) (designed binder)
chain: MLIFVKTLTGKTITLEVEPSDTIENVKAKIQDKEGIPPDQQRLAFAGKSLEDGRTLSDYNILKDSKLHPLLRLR
Regarding B1, the “HDR efficiency (GFP insertion at the HBB locus, CD34-expressing LT-HSPCs, GFP fluorescence)” value is roughly 1.3 fold; the “INDEL frequency at the HBB locus relative to RNP+AAV (CD34-expressing LT-HSPCs, TIDE analysis)” value is 1.7 fold; the “fold increase in HDR at the HBB locus over RNP+AAV alone (CD34-expressing LT-HSPCs, NGS assay)” value turned out to be 1.4 fold; the “fold increase in HDR efficiency over RNP+AAV alone (LT-HSPCs mobilised with Mozobil+GCSF)” value is roughly 1.5 fold.
